The record followed here is the supplement of paper PMC6379048.

Assay in all cases: EC50 of free RNA motif oligo competing protein binding to immobilised probe
The target of one series is T1, TSNAX (UniProt Q99598).
T1 sequence: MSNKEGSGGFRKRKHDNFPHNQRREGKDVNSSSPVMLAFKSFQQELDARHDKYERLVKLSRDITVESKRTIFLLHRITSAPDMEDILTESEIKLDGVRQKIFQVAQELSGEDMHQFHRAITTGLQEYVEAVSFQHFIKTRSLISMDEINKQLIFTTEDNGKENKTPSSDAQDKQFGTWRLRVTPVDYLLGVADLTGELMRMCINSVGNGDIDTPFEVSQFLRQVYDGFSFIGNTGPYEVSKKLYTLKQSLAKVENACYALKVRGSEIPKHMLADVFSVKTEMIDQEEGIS
In a few lines: (§1)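 HEK293-FT lysate (2.5 mg protein/well) was pre-incubated 1 h at 4°C with free RNA oligos (0 nM to 30 μM), then 30 min at 4°C with the same 5′-amino-C6 oligos coupled to NHS-Sepharose beads. Bound proteins were quantified by label-free LC-MS/MS in three biological replicates and two independent experiments, and normalised to the water control. EC50 came from a four-parameter log-logistic fit; Kd is EC50 times a protein-dependent depletion factor.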

The next series concerns the target PIP5K1A (UniProt Q99755). In a few lines: as §1
Another series addresses T2, SYMPK (UniProt Q92797).
T2 sequence: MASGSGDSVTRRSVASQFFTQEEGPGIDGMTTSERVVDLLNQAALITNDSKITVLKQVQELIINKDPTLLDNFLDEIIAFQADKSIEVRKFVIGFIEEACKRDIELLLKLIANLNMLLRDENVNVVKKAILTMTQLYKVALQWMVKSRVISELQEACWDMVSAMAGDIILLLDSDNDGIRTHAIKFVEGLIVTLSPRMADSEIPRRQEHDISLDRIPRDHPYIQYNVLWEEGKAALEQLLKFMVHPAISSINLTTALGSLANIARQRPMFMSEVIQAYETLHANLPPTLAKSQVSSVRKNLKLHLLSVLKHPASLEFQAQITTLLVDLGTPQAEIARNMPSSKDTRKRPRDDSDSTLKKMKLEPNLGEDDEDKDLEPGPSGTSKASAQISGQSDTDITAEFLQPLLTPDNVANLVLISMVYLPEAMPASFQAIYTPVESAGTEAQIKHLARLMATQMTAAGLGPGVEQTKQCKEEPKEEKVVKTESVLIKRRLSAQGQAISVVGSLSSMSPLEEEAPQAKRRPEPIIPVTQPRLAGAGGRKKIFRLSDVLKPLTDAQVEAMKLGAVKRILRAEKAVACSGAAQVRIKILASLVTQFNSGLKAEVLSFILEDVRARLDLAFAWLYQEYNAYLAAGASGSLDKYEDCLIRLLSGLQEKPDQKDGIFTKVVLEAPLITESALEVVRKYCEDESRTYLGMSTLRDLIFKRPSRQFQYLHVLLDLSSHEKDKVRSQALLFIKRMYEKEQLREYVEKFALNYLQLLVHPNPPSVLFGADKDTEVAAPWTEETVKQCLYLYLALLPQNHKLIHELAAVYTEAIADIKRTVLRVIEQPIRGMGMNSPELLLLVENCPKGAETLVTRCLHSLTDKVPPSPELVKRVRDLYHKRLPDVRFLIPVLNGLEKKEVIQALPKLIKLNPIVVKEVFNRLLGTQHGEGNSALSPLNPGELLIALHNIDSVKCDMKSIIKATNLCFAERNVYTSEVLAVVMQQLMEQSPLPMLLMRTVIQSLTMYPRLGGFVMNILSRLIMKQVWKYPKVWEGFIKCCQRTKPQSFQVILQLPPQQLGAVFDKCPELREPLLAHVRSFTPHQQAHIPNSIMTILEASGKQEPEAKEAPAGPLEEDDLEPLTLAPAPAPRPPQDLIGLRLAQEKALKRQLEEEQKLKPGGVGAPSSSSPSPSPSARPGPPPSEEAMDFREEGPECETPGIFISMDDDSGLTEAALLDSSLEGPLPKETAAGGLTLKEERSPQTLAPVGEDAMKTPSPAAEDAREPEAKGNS
In outline: as §1

For another series, the target named is RPS25 (UniProt P62851). In outline: as §1
For a further series, the target named is RPS18 (UniProt P62269). In outline: as §1
The next series has as its target MRPS18A (UniProt Q9NVS2). In a few lines: as §1
The target of another series is T3, ZFP36L1 (UniProt Q07352).
T3 sequence: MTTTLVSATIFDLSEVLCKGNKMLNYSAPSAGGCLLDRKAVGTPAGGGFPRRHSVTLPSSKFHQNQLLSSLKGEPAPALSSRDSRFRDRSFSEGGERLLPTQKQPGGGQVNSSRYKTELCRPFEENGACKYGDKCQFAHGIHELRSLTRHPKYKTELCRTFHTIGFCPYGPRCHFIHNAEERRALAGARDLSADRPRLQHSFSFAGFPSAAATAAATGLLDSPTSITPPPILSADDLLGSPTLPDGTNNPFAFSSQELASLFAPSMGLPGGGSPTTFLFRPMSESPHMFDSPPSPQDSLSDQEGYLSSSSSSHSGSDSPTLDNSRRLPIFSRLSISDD
In outline:
as §1

A further series addresses MRPS23 (UniProt Q9Y3D9). In outline: as §1

Chain of PIP5K1A (Q99755 whole entry): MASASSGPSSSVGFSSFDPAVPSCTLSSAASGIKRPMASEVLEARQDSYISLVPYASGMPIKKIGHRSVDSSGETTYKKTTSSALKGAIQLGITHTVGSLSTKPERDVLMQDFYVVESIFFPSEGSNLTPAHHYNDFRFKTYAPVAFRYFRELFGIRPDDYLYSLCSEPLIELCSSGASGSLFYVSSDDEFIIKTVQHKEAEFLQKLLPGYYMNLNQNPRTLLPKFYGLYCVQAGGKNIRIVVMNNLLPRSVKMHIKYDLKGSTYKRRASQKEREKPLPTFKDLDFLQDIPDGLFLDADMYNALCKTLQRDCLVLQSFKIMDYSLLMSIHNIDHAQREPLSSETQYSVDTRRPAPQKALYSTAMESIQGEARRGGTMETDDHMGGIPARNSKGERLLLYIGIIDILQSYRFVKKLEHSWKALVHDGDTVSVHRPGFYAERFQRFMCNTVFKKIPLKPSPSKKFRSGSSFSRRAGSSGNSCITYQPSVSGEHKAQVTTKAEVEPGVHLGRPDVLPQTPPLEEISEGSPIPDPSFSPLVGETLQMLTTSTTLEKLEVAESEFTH

Consider AAUAAA, for which the EC50 (in general, the concentration at which the effect is half-maximal) with TSNAX turned out to be 30.5 nM; in the series with PIP5K1A, 2250 nM; with SYMPK, 116 nM.
For CUGUCCU, the EC50 in the series with RPS25 turned out to be 72.5 nM; with RPS18, 89.4 nM; with MRPS18A it was 102 nM.
UAUUUAU: the EC50 came out at 73.9 nM with ZFP36L1 and 40 nM with MRPS23.
